Results published in the Human Domainome abundance scans (Beltran et al. 2025).

B1: Dystrobrevin alpha, residues 235 to 294; numbered along this chain, Q9Y4J8 (parent)
chain: ENVFHPVECSYCHSESMMGFRYRCQQCHNYQLCQDCFWRGHAGGSHSNQHQMKEYTSWKS

Variants of: B1
Experiment: abundance fitness (aPCA) (normalised: wild type 0, dead -1); higher = more abundant; growth selection in yeast, the domain comes from the species named
Details: Homo sapiens

Abundance fitness: each site, then its substitutions
S16: A -0.049, C -0.092, D 0.012, E -0.033, F -0.084, G -0.128, H -0.206, I 0.148, K 0.001, L 0.023, M -0.041, N -0.011, P -0.029, Q 0.043, R 0.06, T 0.014, V 0.009, W -0.208, Y -0.304
M17: A -0.037, C -0.055, D 0.059, E 0.116, F -0.002, G 0.085, H 0.116, I 0.045, K 0.136, N 0.046, P -0.008, Q -0.019, R 0.007, S 0.109, T 0.081, V 0.004, W -0.084, Y -0.183
M18: A 0.199, C -0.189, D 0.129, E 0.103, F 0.126, G 0.064, H 0.163, I -0.021, K 0.029, L 0.09, N 0.101, P 0.116, Q 0.156, R 0.111, S 0.133, T 0.075, V 0.155, W -0.266, Y 0.075
G19: A 0.176, C -0.191, D -0.046, E -0.103, F -0.219, H 0.003, I -0.256, K 0.129, L -0.134, M -0.167, N -0.027, P 0.018, Q 0.046, S 0.089, T -0.147, V -0.13, Y -0.248
F20: A 0.224, C 0.14, D 0.106, G 0.163, H 0.151, I 0.061, K 0.31, M -0.004, N 0.217, P 0.307, Q 0.134, S 0.237, T 0.15, V 0.104, W 0.137, Y 0.045
R21: A -0.02, C -0.092, D -0.436, E -0.07, F -0.188, G -0.15, H 0.165, I -0.128, K 0.047, L 0.058, M 0.063, S 0.138, T 0.088, V -0.207, W -0.02, Y -0.394
Y22: A -0.13, C -0.409, D -0.814, E -0.675, G -0.658, H -0.053, I -0.337, K -0.263, L -0.3, M -0.142, N -0.364, P -0.904, Q -0.754, R -0.241, S -0.405, T -0.437, V -0.051, W -0.086
R23: A -0.049, C 0.176, D -0.022, E 0.03, F -0.034, G -0.158, H 0.201, I -0.05, K 0.147, L 0.002, M 0.006, P -0.509, Q 0.034, S 0.066, T -0.008, V 0.074, W -0.276, Y -0.138
C24: D -0.441, E -0.615, F -1.04, G -0.736, H -0.887, I -0.822, K -0.928, L -0.911, M -0.731, N -0.691, P -1.08, Q -0.561, R -0.97, S -0.851, T -0.752, V -0.838, W -1.07, Y -0.935
Q25: A -0.213, C -0.102, D -0.117, E 0.078, F -0.325, G -0.202, H -0.193, I -0.208
